According to patent US9540654B2, “Synthetic brassica-derived chloroplast transit peptides” (Dow AgroSciences LLC, priority 2012, dated 2017):

Columns and labels:
[1] = tested on: chloroplasts of the maize protoplast; test: Maize protoplast transient assay, microscopy of TraP12-YFP; type: cell-based, Zea mays var. B104; details: maize protoplasts, 12 hours after transfection
From the text: The Trap12 chimeric chloroplast transit peptide-encoding polynucleotide sequence (SEQ ID NO:5) and the linker sequence (SEQ ID NO:10) were cloned upstream of the yellow fluorescent protein gene and incorporated into construct for testing via the maize protoplast transient in planta assay. The resulting construct contained the following plant transcription unit (PTU). The first PTU was comprised of the Zea mays Ubiquitin 1 promoter (ZmUbi1 promoter; Christensen, A., Sharrock R., and Quail P., (1992) Maize polyubiquitin genes: structure, thermal perturbation of expression and transcript splicing, and promoter activity following transfer to protoplasts by electroporation, Plant Molecular Biology, 18:675-689), Trap yellow fluorescent protein fusion gene (TraP12-YFP; US Patent App. 2007/0298412), and Zea mays Peroxidase 5 3′ untranslated region (ZmPer5 3′UTR; U.S. Pat. No. 6,384,207). The construct was confirmed via restriction enzyme digestion and sequencing.
Seed of Zea mays var. B104 were surface sterilized by shaking vigorously in 50% Clorox (3% sodium hypochlorite), containing 2-3 drops of Tween 20, for about 20 minutes. […]
Transfection of 100 to 500 μl of protoplasts (1-5×10^5) was completed by adding the protoplasts to a 2 ml microfuge tube containing about 40 μg of plasmid DNA (pDAB106597), at room temperature. […] Fluorescence of YFP was viewed by microscopy after 12 hours of incubation. […]

[2] = tested on: chloroplasts of the tobacco leaf tissue; test: Tobacco transient assay, confocal microscopy of TraP-YFP; type: cell-based, Nicotiana benthamiana; details: Agrobacterium-infiltrated tobacco leaves
From the text: The Trap12 and TraP13 chimeric chloroplast transit peptide sequences were initially tested via a transient in planta assay. Polynucleotide sequences which encode the Trap12 (SEQ ID NO:5) and TraP13 (SEQ ID NO:7) chimeric chloroplast transit peptide sequences were synthesized. A linker sequence (SEQ ID NO:10) was incorporated between the TraP sequence and the yfp coding sequence. The resulting constructs contained two plant transcription units (PTU). The first PTU was comprised of the Arabidopsis thaliana Ubiquitin 10 promoter (AtUbi10 promoter; Callis, et al., (1990) J. Biol. Chem., 265: 12486-12493), Trap yellow fluorescent protein fusion gene (TraP-YFP; US Patent App. 2007/0298412), and Agrobacterium tumefaciens ORF 23 3′ untranslated region (AtuORF23 3′UTR; U.S. Pat. No. 5,428,147). […]
Agrobacterium-infiltrated tobacco leaves were severed from the plant, and placed into a petri-dish with water to prevent dehydration. The infiltrated tobacco leaves were observed under blue light excitation with long-pass filter glasses held in place using a Dark Reader Hand Lamp™ (Clare Chemical Research Co.; Dolores, Colo.) to identify undamaged areas of the leaf that were successfully expressing the YFP reporter proteins. […]

[3] = tested on: Cry1Ac, Cry1Ca, Cry1F proteins; test: Protein expression of stacked TraP12 cry1Ac, cry1Ca, cry1F in Arabidopsis (Western blotting, ELISA); design: species or system Arabidopsis thaliana
From the text: The TraP12 chimeric transit peptide was fused to the 5′ end of cry1Ac, cry1Ca, and cry1F gene sequences which were stacked in multi PTU plasmid constructs to determine whether the TraP12 chimeric transit peptide enhanced or reduced expression of the proteins within Arabidopsis.
The constructs listed in Table 35 were assembled using art recognized methods. The constructs were subsequently transformed into Arabidopsis thaliana using the Agrobacterium mediated transformation protocol previously described. Transgenic Arabidopsis plants were obtained and protein expression was determined via Western blotting and ELISA assays.

B1: TraP12: chimeric chloroplast transit peptide SEQ ID NO:6, N-terminus from Brassica napus, C-terminus from Arabidopsis thaliana EPSPS (protein)
chain: MAQSSRICHGVQNPCVIISNLSKSNQNKSPFSVSLKTHQHPRAYPISSSWGLKKSGMTLIGSELRPLKVMSSVS
modifications: TraP12 chloroplast transit peptide
- localization of YFP fluorescent protein (microscopy imaging) [1]: accumulated within the chloroplasts
- localization of YFP fluorescence signal (microscopy imaging) [2]: accumulated within the chloroplasts
- translocation of expressed proteins (Western blots) [3]: directed the expressed proteins into the chloroplasts
